T1: Recombinant Bet v1 (major birch pollen allergen Bet v1) (birch, biotin (biotinylated rBet v1 in the flow cytometry and in the IgE-blocking ELISA; site not stated))
T1 construct: Bet v1, major allergen of birch pollen (PR-10 family); codon-optimized synthetic gene in pET29b; PDB 4A81 was the Bet v1 model fitted into the cryo-EM map; One molecule for the plain and the biotinylated protein: same construct; also called rBet v1; biotinylated rBet v1
T1 chain: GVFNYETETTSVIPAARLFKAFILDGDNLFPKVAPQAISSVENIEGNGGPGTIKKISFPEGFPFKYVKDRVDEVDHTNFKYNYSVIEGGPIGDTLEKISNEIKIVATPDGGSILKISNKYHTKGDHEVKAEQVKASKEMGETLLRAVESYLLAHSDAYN


Columns and labels:
[1] = target: Recombinant Bet v1 (major birch pollen allergen Bet v1) (birch) (UniProt P15494); test: BLI
[2] = target: Recombinant Bet v1 (major birch pollen allergen Bet v1) (birch) (UniProt P15494); test: ELISA
[3] = target: T1, Recombinant Bet v1 (major birch pollen …); test: cryo-EM structure; Bet v1 complexed with threefold molar excess of Fab08 and Fab10; reconstruction at 4.8 Å, Cα positioning; settings: both partners purified
[4] = target: T1, Recombinant Bet v1 (major birch pollen …); test: flow cytometry on cells; transduced primary human T cells stained with biotinylated rBet v1 (1 μg/ml) and streptavidin-PE, 30 min at 4°C; mCherry reporter; settings: one partner purified

| Molecule | EC50 [2] | binding result [4] | also measured |
| --- | --- | --- | --- |
| mAb 11 (human anti-Bet v1 IgG monoclonal antibody) (from UniProt P01857) | 4.26 ng/mL | – | Kd [1]: 3.61 nM |
| mAb 10 (human anti-Bet v1 IgG monoclonal antibody) (from UniProt P01857) | 7.26 ng/mL | – | – |
| eB20 (human anti-Bet v1 antibody from an IgE clone) (from UniProt P01857) | 8.89 ng/mL | – | – |
| Fab10 (Fab of mAb 10) (Fab, V domains shown, heavy variable domain as the heavy chain of m4 (mAb 10); constant part of the Fab heavy chain; as the light chain of m4 (mAb 10); The production of the Fabs is not described) VH: EVQLVESGGGLVQPGGSLRLSCTASGFTFSSYMTHWVRQAPGKGLEWVSHISGDGTNTTYADTVKGRFFTSRDNVKNTLFLQMDSLRAEDTAVYFCARGSWYTTGWHRNYYFGMDVWGQGTTVTVSS VL: DIVMTQSPLSLPVTPGEPASISCRSSQSLLHSNGYNYLDWYLQKPGRSPQLLIYLGSHRASGVPDRFSGDGSGTDFTLKISRVEAEDVGVYYCMQVLQTPSFGGGTKVEIK | – | – | binding result [3]: binds |
| CAlleR 10 (anti-Bet v1 chimeric allergen receptor with the scFv of mAb 10, CD28 and CD3ζ domains) (other, scFv derived from mAb 10 (variable domains as in m4; GenBank within PZ143166-PZ143179); CD28 hinge, transmembrane and intracellular (costimulatory) domains; CD3ζ intracellular signaling domain; Second-generation CAR design in pCDH-EF1-FHC (Addgene 64874), as in Muller et al., 2021a; source: primary human T cells, lentivirally transduced, on cells) VH: EVQLVESGGGLVQPGGSLRLSCTASGFTFSSYMTHWVRQAPGKGLEWVSHISGDGTNTTYADTVKGRFFTSRDNVKNTLFLQMDSLRAEDTAVYFCARGSWYTTGWHRNYYFGMDVWGQGTTVTVSS VL: DIVMTQSPLSLPVTPGEPASISCRSSQSLLHSNGYNYLDWYLQKPGRSPQLLIYLGSHRASGVPDRFSGDGSGTDFTLKISRVEAEDVGVYYCMQVLQTPSFGGGTKVEIK | – | binds | – |
| Fab08 (Fab of mAb 8) (Fab, V domains shown, heavy variable domain as the heavy chain of m3 (mAb 8, IGHV5-51); constant part of the Fab heavy chain; as the light chain of m3 (mAb 8, IGKV1-39); The production of the Fabs is not described) VH: EVQLVQSGAEVKKPGDSLKISCKGSGYSFSNFWIGWVRQMPGKGLELMGIVYPGDSDTKYRPSFLGQVTISADKSIATAFLQWSRLTASDTAIYYCARLGATYAGADFWGQGTLVTVSS VL: DIQMTQSPSSLSASVGDRVTITCRASQTIVTYLNWYQQKPGKAPKLLIYAASNLQSGVPSRFSGSGSGTDFTLTISSLQPEDFAIYYCQQSYAAFGEGTKVEIK | – | – | binding result [3]: binds |
| CAlleR 8 (anti-Bet v1 chimeric allergen receptor with the scFv of mAb 8, CD28 and CD3ζ domains) (other, scFv derived from mAb 8 (variable domains as in m3; GenBank within PZ143166-PZ143179); CD28 hinge, transmembrane and intracellular (costimulatory) domains; CD3ζ intracellular signaling domain; Second-generation CAR design in pCDH-EF1-FHC (Addgene 64874), as in Muller et al., 2021a; The murine CAlleR 8 (mouse CD28 and CD3ζ domains) is another construct and has no row; source: primary human T …) VH: EVQLVQSGAEVKKPGDSLKISCKGSGYSFSNFWIGWVRQMPGKGLELMGIVYPGDSDTKYRPSFLGQVTISADKSIATAFLQWSRLTASDTAIYYCARLGATYAGADFWGQGTLVTVSS VL: DIQMTQSPSSLSASVGDRVTITCRASQTIVTYLNWYQQKPGKAPKLLIYAASNLQSGVPSRFSGSGSGTDFTLTISSLQPEDFAIYYCQQSYAAFGEGTKVEIK | – | binds | – |
| CAlleR 5 (anti-Bet v1 chimeric allergen receptor with the scFv of mAb 5, CD28 and CD3ζ domains) (other, scFv derived from mAb 5 (variable domains as in m2; GenBank within PZ143166-PZ143179); CD28 hinge, transmembrane and intracellular (costimulatory) domains; CD3ζ intracellular signaling domain; Second-generation CAR design in pCDH-EF1-FHC (Addgene 64874), as in Muller et al., 2021a; source: primary human T cells, lentivirally transduced, on cells) VH: EVQLVQSGAEVKKPGESLNISCNGSGYNFTKYWIAWVRQMPGKGLEWMGIIYPGDSDTKYRPSFQGQVTISADKSITTAYLQWSRLKVSDTAIYYCARLGATYGGADYWGQGTLVTVSS VL: DIQMTQSPSSLSASVGDRVTITCQASQSIVNYLNWYQQKPGKAPKLLIYAASSLQSGVPSRFSGSGSGTDFTLTISSLQPEDFATYYCQQSYAAFGEGTKVEIT | – | binds | – |
| CAlleR 11 (anti-Bet v1 chimeric allergen receptor with the scFv of mAb 11, CD28 and CD3ζ domains) (other, scFv derived from mAb 11 (variable domains as in m5; GenBank within PZ143166-PZ143179); CD28 hinge, transmembrane and intracellular (costimulatory) domains; CD3ζ intracellular signaling domain; Second-generation CAR design in pCDH-EF1-FHC (Addgene 64874), as in Muller et al., 2021a; source: primary human T cells, lentivirally transduced, on cells) VH: EVELLESGGGLVQPGGSLRLSCVGSGFTFPSYAMTWVRQAPGKGLEWVSAISGGGENSGGSTYYADSVKGRFTISRDNSKNTLFLQMSSLRAEDTAVYYCTREPVSWAFGSGTEYFDYWGQGTLVTVSS VL: QSVLTQPPSASGTPGQRVTISCSGSSSNIGSNTVTWYHQLPGTAPKLLIYNNHRRPSGVPDRFSGSKSGTAASLGISGLQSEDEAAYYCATWDDSLKGWVFGGGTKLTVL | – | binds | – |

Source: publication PMC13335422 (The Journal of Experimental Medicine, 2026)
